B1: AtGH3-4: GH3 protein, accession Q9LQ68 (protein, listed as Arabidopsis thaliana)
chain: MAVDSLLQSGMASPTTSETEVKALKFIEEITRNPDSVQEKVLGEILSRNSNTEYLKRFDLNGAVDRKSFKSKVPVVIYEDLKTDIQRISNGDRSPILSSHPITEFLTSSGTSAGERKLMPTIEEDINRRQLLGNLLMPVMNLYVPGLDKGKGLYFLFVKSESTTSGGLPARPALTSYYKSDYFRTSDSDSVYTSPKEAILCCDSSQSMYTQMLCGLLMRHEVNRLGAVFPSGLLRAISFLQNNWKELSQDISTGTLSSKIFDHAIKTRMSNILNKPDQELAEFLIGVCSQENWEGIITKIWPNTKYLDVIVTGAMAEYIPMLEYYSGGLPMASMIYASSESYFGINLNPMCKPSEVSYTIFPNMAYFEFLPHNHDGDGGVEATSLVELADVEVGKEYELVITTYAGLYRYRVGDILRVTGFHNSAPQFKFIRRENVLLSIESDKTDEADLQKAVENASRLLAEQGTRVIEYTSYADTKTIPGHYVIYWELLSRDQSNALPSDEVMAKCCLEMEESLNAVYRQSRVSDKSIGPLEIRVVQNGTFEELMDFSISRGSSINQYKVPRCVSLTPIMKLLDSRVVSAHFSPSLPHWSPERRH
B2: AtGH3-2: GH3 protein, accession AEE86787 (protein, listed as Arabidopsis thaliana)
chain: MAVDSPLQSRMVSATTSEKDVKALKFIEEMTRNPDSVQEKVLGEILTRNSNTEYLKRFDLDGVVDRKTFKSKVPVVTYEDLKPEIQRISNGDCSPILSSHPITEFLTSSGTSAGERKLMPTIEEDLDRRQLLYSLLMPVMNLYVPGLDKGKGLYFLFVKSESKTSGGLPARPVLTSYYKSDHFKRRPYDPYNVYTSPNEAILCSDSSQSMYAQMLCGLLMRHEVLRLGAVFASGLLRAISFLQNNWKELARDISTGTLSSRIFDPAIKNRMSKILTKPDQELAEFLVGVCSQENWEGIITKIWPNTKYLDVIVTGAMAQYIPTLEYYSGGLPMACTMYASSESYFGINLKPMCKPSEVSYTIMPNMAYFEFLPHNHDGDGAAEASLDETSLVELANVEVGKEYELVITTYAGLYRYRVGDILRVTGFHNSAPQFKFIRRKNVLLSVESDKTDEAELQKAVENASRLFAEQGTRVIEYTSYAETKTIPGHYVIYWELLGRDQSNALMSEEVMAKCCLEMEESLNSVYRQSRVADKSIGPLEIRVVRNGTFEELMDYAISRGASINQYKVPRCVSFTPIMELLDSRVVSAHFSPSLPHWSPERRR
B3: AIGH3-6: GH3 protein, accession XP_002866046 (protein, listed as Arabidopsis lyrata)
chain: MPEAPKIVALEVSDESLAEKNKNKLQFIEDVTTNADDVQRRVLEEILSRNADVEYLKRHGLDGRTDRETFKHVMPVVTYEDIQPEINRIANGDKSQILCSNPISEFLTSSGTSGGERKLMPTIEEELDRRSLLYSLLMPVMNQFVPGLDKGKGMYFLFIKSESKTPGGLPARPVLTSYYKSSHFKNRPFDPYNNYTSPNQTILCSDSYQSMYSQMLCGLCQHKEVLRVGAVFASGFIRAIKFLEKHWSELARDIRTGTLSSEITDLSVREAVGEILKPDPKLADFVESECRKTSWQGIITRLWPNTKYVDVIVTGTMSQYIPTLDYYSNGLPLVCTMYASSECYFGVNLRPLCKPSEVSYTLIPNMAYFEFLPVHRNSGVTSSISLPKALTEKEQQELVDLVDVKLGQEYELVVTTYAGLYRYRVGDVLSVAGFKNNAPQFSFICRKNVALSIDSDKTDEVELQNAVKNAVTHLVPFDASLSEYTSYAETSSIPGHYVLFWELCLNGNTPIPPSVFEDCCLTIEESLNSVYRQGRVSDKSIGPLEIKMVESGTFDKLMDYAISLGASINQYKTPRCVKFAPIIELLNSRVVDSYFSPKCPKWAPGHKQWGSN
B4: AIGH3-2: GH3 protein, accession XP_002868993 (protein, listed as Arabidopsis lyrata)
chain: MAVDSPLQSRMVSPTTSEKDVKALKFIEEMTRNPDSVQEKVLGEILSRNSNTEYLKRFDINGAIDRNTFKNKVPVVTYEDLKPEIQRISNGDRSPILSSHPITEFLTSSGTSAGERKLMPTIEEDLDRRQLLYSLLMPVMNLYVPGLDKGKGLYFLFVKSESKTSGGLPARPVLTSYYKSDHFRRRPYDPYNVYTSPNEAILCSDSSQSMYAQMLCGLLMRHEVLRLGAVFASGLLRAISFLQNNWKELARDISTGTLSSRIFDPTIKNRMSKILIKPDQELAEFLIGVCSQENWEGIITKIWPNTKYLDVIVTGAMAQYIPTLEYYSGGLPMACTMYASSESYFGINLKPMCKPSEVSYTIMPNMAYFEFLPHNHDGDGATEASLDETSLVELADVEVGKEYELVITTYAGLYRYRVGDILRVTGFHNSAPQFKFIRRKNVLLSIESDKTDEAELQKAVENASRLFAEQGTRVIEYTSYAETKTIPGHYVIYWELLGRDQSNALPSEEVMAKCCLEMEESLNSVYRQSRVADKSIGPLEIRLVQNGTFEELMDYAISRGASINQYKVPRCVSFTPIMELLDSRVVSAHFSPSLPHWSPERRR
B5: PtGH3-7: GH3 protein, accession EEE84166 (protein, listed as Populus trichocarpa)
chain: MLPVFDPNDNEAGLKLLEDLTNNACQIQQQVLEEILATNLHTEYLKSFLNGDSGKENFKNKVPIVNYEDIKPCIERIANGEPSSIISTQPITELLTSSGTSGGQPKIMPSTAEELERKTFFYNLLVPVMNKYVDGLDQGKAMYLLFIKPEISTPSGLMARPVLTSYYKSNNFRNRAFNRYNVYTSPDETILCSDSKQSMYCQLLCGLVQRDEVLRVGAIFASAFLRAIKFLEEYLKELCSNIRTGSVSDWITDPNCRNAVLSILSKPNSELADLIEDECSGKSWEGIIKKLWPRTKYIEVIVTGSMAQYIPTLEFYSGGLPLVSTMYGSSECYLGINFKPLSNPYDVSYTLLPNMAYFEFLPVDNNHKEVVPDVQCNGVSVTDRNGKEKVEAVDLVDVKLGHYYELIVTTFTGLYRYRVGDILMVTGFYNNAPQFRFVHRRNVVLSIDTDKTNEEDLLKAVTQAKVLLEPLGFLLTEYTSFADTASIPGHYVLFWELKMRGTNDLPELDPVIMEQCCSIVEESLDSVYRRCRKKDKSIGPLEVRVVTHGTFDALMDFCVSQGSSVNQYKTPRCIKSEEALKILDSRVVGRFSSNKTPFWEPFRIET
B6: AtGH3-5: GH3 protein, accession O81829 (protein, listed as Arabidopsis thaliana)
chain: MPEAPKKESLEVFDLTLDQKNKQKLQLIEELTSNADQVQRQVLEEILTRNADVEYLRRHDLNGRTDRETFKNIMPVITYEDIEPEINRIANGDKSPILSSKPISEFLTSSGTSGGERKLMPTIEEELDRRSLLYSLLMPVMSQFVPGLENGKGMYFLFIKSESKTPGGLPARPVLTSYYKSSHFKERPYDPYTNYTSPNETILCSDSYQSMYSQMLCGLCQHQEVLRVGAVFASGFIRAIKFLEKHWIELVRDIRTGTLSSLITDPSVREAVAKILKPSPKLADFVEFECKKSSWQGIITRLWPNTKYVDVIVTGTMSQYIPTLDYYSNGLPLVCTMYASSECYFGVNLRPLCKPSEVSYTLIPSMAYFEFLPVHRNNGVTNSINLPKALTEKEQQELVDLVDVKLGQEYELVVTTYAGLCRYRVGDLLRVTGFKNKAPQFSFICRKNVVLSIDSDKTDEVELQNAVKNAVTHLVPFDASLSEYTSYADTSSIPGHYVLFWELCLDGNTPIPPSVFEDCCLAVEESFNTVYRQGRVSDKSIGPLEIKIVEPGTFDKLMDYAISLGASINQYKTPRCVKFAPIIELLNSRVVDSYFSPKCPKWVPGHKQWGSN
B7: AtGH3-1: GH3 protein, accession O82333 (protein, listed as Arabidopsis thaliana)
chain: MAVDSNLSSPLGPPACEKDAKALRFIEEMTRNADTVQENLLAEILARNADTEYLRRFNLCGATDRDTFKTKIPVITYEDLQPEIQRIADGDRSPILSAHPISEFLTSSGTSAGERKLMPTIKEELDRRQLLYSLLMPVMNLYVPGLDKGKGMYFLFVKSETKTPGGLPARPVLTSYYKSEHFRSRPYDPYNVYTSPNEAILCPDSFQSMYTQMLCGLLDRLSVLRVGAVFASGLLRAIRFLQLHWSRFAHDIELGCLDSEITDPSIRQCMSGILKPDPVLAEFIRRECKSDNWEKIITRIWPNTKYLDVIVTGAMAQYIPTLEYYSGGLPMACTMYASSECYFGLNLNPMSKPSEVSYTIMPNMAYFEFIPLGGTKAVELVDVNIGKEYELVVTTYAGLCRYRVGDILRVTGFHNSAPQFHFVRRKNVLLSIDSDKTDESELQKAVENASSILHEECGSRVAEYTSYADTSTIPGHYVLYWELLVRDGARQPSHETLTRCCLGMEESLNSVYRQSRVADNSVGPLEIRVVRNGTFEELMDYAISRGASINQYKVPRCVNFTPIVELLDSRVVSAHFSPSLPHWTPERRRR

Experiment: LC-MS assay of GH3 conjugation of IAA with Asp or Glu
Type: biochemical
Conditions: conjugation of IAA with Asp by recombinant GH3 protein; IAA-Asp product by LC-MS
Method in brief: (§1)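 Kinetic parameters come from Michaelis-Menten fits of initial velocities. Velocities reflect LC-MS quantification, against standards, of Asp or Glu conjugates formed by purified GH3 (44 to 164 μg/mL) with 5 mM ATP and MgCl2 at pH 8.0, 30° C.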
In the case of B1, the “kcat (hrs−1) IAA-Asp” value is reported as 414.602 h⁻¹. In the case of B2, the “kcat (hrs−1) IAA-Asp” value is reported as 511.761 h⁻¹. For B3, the “kcat (hrs−1) IAA-Asp” value was 413.293 h⁻¹. With B4 the “kcat (hrs−1) IAA-Asp” value was 583.500 h⁻¹. For B5, the “kcat (hrs−1) IAA-Asp” value was 38.668 h⁻¹. With B6 the “kcat (hrs−1) IAA-Asp” value was 578.727 h⁻¹. With B7 the “kcat (hrs−1) IAA-Asp” value was 437.707 h⁻¹.

Same assay, conditions: conjugation of IAA with Glu by recombinant GH3 protein; IAA-Glu product by LC-MS
With B1 the “kcat (hrs−1) IAA-Glu” value was 37.932 h⁻¹. With B2 the “kcat (hrs−1) IAA-Glu” value was 30.640 h⁻¹. With B3 the “kcat (hrs−1) IAA-Glu” value was 20.881 h⁻¹. With B4 the “kcat (hrs−1) IAA-Glu” value was 13.953 h⁻¹. With B5 the “kcat (hrs−1) IAA-Glu” value was 450.548 h⁻¹. In the case of B6, the “kcat (hrs−1) IAA-Glu” value is reported as 68.086 h⁻¹. For B7, the “kcat (hrs−1) IAA-Glu” value was 19.230 h⁻¹.

Experiment: LC-MS assay of GH3 conjugation of 2,4-D with Asp or Glu
Type: biochemical
Conditions: conjugation of 2,4-D with Asp by recombinant GH3 protein; 2,4-D-Asp product by LC-MS; 5 mM 2,4-D substrate
Method in brief: as §1
With B1 the “kcat (hrs−1) 2,4-D-Asp” value was 2.032 h⁻¹. In the case of B2, the “kcat (hrs−1) 2,4-D-Asp” value is reported as 1.200 h⁻¹. For B3, the “kcat (hrs−1) 2,4-D-Asp” value was 1.300 h⁻¹. For B4, the “kcat (hrs−1) 2,4-D-Asp” value was 1.903 h⁻¹. In the case of B5, the “kcat (hrs−1) 2,4-D-Asp” value is reported as 0.547 h⁻¹. In the case of B6, the “kcat (hrs−1) 2,4-D-Asp” value is reported as 2.309 h⁻¹. With B7 the “kcat (hrs−1) 2,4-D-Asp” value was 1.188 h⁻¹.

Same assay, conditions: conjugation of 2,4-D with Glu by recombinant GH3 protein; 2,4-D-Glu product by LC-MS; 5 mM 2,4-D substrate
For B1, the “kcat (hrs−1) 2,4-D-Glu” value was 0.594 h⁻¹. In the case of B2, the “kcat (hrs−1) 2,4-D-Glu” value is reported as 0.131 h⁻¹. For B3, the “kcat (hrs−1) 2,4-D-Glu” value was 0.211 h⁻¹. For B4, the “kcat (hrs−1) 2,4-D-Glu” value was 0.309 h⁻¹. In the case of B5, the “kcat (hrs−1) 2,4-D-Glu” value is reported as 3.487 h⁻¹. In the case of B6, the “kcat (hrs−1) 2,4-D-Glu” value is reported as 0.795 h⁻¹. In the case of B7, the “kcat (hrs−1) 2,4-D-Glu” value is reported as 0.136 h⁻¹.

From patent US20150351390A1, “COMPOSITIONS AND METHODS FOR AUXIN-ANALOG CONJUGATION” (PIONEER HI-BRED INTERNATIONAL, INC., priority 2012, published 2015)
